Laboratory results: US8624002B2, “Prostaglandin E2 binding proteins and uses thereof” (AbbVie, Inc., priority 2008, dated 2014)

Columns and labels:
[1] = Biotin-PGE2 ELISA (PGE2-biotinamide binding to captured IgG)
Experimental: Enzyme linked immunosorbent assays to screen for antibodies that bind prostaglandin E2 were performed according to at least one of the two following methods.
ELISA plates (Costar 3369, Corning, N.Y.) were coated with 50 μl of anti-host Fc IgG (Sigma, St. Louis, Mo.) at 2 μg/ml in PBS (Invitrogen Carlsbad, Calif.). Following an overnight incubation at 4° C., washed with PBS and the plate was blocked with 200 μl Superblock (Pierce #37535, Rockford, Ill.). The IgG containing samples were diluted to 1 μg/ml in Assay Buffer (10% Superblock in PBS containing 0.05% Surfactamps (Pierce #37535, Rockford, Ill.) and 50 μl/well added to each well and incubated for 1 hour at room temperature. Plates were washed four times with Tween-Tris Buffered Solution (TTBS). […] The titration curve samples were added to each IgG sample at 50 μl/well and incubated for 1 hour at room temperature. The plates were washed as previously described and 50 μl of 1:5000 dilution of streptavidin polyhrp40 (Fitzgerald Industries, Concord, Mass.) in Assay Buffer was added to each well and incubated for 45 minutes at room temperature. A final wash step was performed and the plates were developed using a single step TMB system (Sigma #T8665, St. Louis, Mo.) and 100 μl/well 2N H2SO4. Plates were read at 450 nm on a Molecular Devices Spectramax plate reader (Sunnyvale, Calif.). EC50 was determined using GraphPad Prism 5 (GraphPad Software, La Jolla, Calif.).

[2] = Biotin-PGE2 competition ELISA (prostaglandin selectivity); assay type: binding
Experimental: Competition enzyme linked immunosorbent assays were performed to determine prostaglandin binding specificity for antibodies that bind prostaglandin E2, according to at least one of the two following methods.
ELISA plates (Costar 3369, Corning, N.Y.) were coated with 50 μl/well of anti-host Fc IgG (Sigma, St. Louis, Mo.) at 2 μg/ml in PBS (Invitrogen, Carlsbad, Calif.). Following an overnight incubation at 4° C., the plate was blocked with 200 μl Superblock (Pierce #37535, Rockford, Ill.). The IgG samples were diluted to 6 μg/ml in Assay Buffer (10% Superblock in PBS containing 0.05% Surfactamps (Pierce #37535, Rockford, Ill.). The PGE2-biotinamide was diluted to 3 nM in Assay Buffer. A titration curve in Assay Buffer was prepared for the prostaglandins PGA2 (Cayman Chemicals, Ann Arbor, Mich.), PGD2 (Cayman Chemicals, Ann Arbor, Mich.) and PGE2 (Cayman Chemicals, Ann Arbor, Mich.) starting at 300 nM by a 1:10 serial dilution. The reagents were added to tubes at a volume of 50 μl each/tube and preincubated for 1 hour at room temperature. Following the preincubation, the mix was transferred to the blocked plates and allowed to incubate for 1 hour at room temperature. Next, the plates were washed four times with Tween 20-Tris buffered solution (TTBS). Streptavidin polyhrp40 in Assay Buffer (Fitzgerald Industries, Concord, Mass.) at a 1:5000 dilution was then added to the wells and incubated for 45 minutes at room temperature. A final wash step was performed and the plates were developed using a single step TMB system (Sigma #T8665, Sigma, St. Louis, Mo.) and 100 μl/well 2N H2SO4. Plates were read at 450 nm on a Molecular Devices Spectramax plate reader (Sunnyvale, Calif.). […] IC50 number was determined using GraphPad Prism 5 (GraphPad Software, La Jolla, Calif.). The cross reactivity index was then calculated by IC50 of PGE2/IC50 of other prostaglandin(s).

[3] = Biotin-PGE2 45 μM, IgG-containing COS7 media

Binding to PGE2-Biotinamide (OD450) ([1]; Biotin-PGE2 0 μM)	Binding to PGE2-Biotinamide (OD450) ([1]; Biotin-PGE2 0.1 μM)	Binding to PGE2-Biotinamide (OD450) ([1]; Biotin-PGE2 0.3 μM)	Binding to PGE2-Biotinamide (OD450) ([1]; Biotin-PGE2 1 μM)	Binding to PGE2-Biotinamide (OD450) ([1]; Biotin-PGE2 2 μM)	Binding to PGE2-Biotinamide (OD450) ([1]; Biotin-PGE2 5 μM)	Binding to PGE2-Biotinamide (OD450) ([1]; Biotin-PGE2 15 μM)	Binding to PGE2-Biotinamide (OD450) [1, 3]	EC50 [1]	ability to bind PGE2 in ELISA [1]	Molecule	PG Selectivity in Biotin-PGE2 Competition ELISA (CRI %) PGA2 [2]	PG Selectivity in Biotin-PGE2 Competition ELISA (CRI %) PGD2 [2]	PG Selectivity in Biotin-PGE2 Competition ELISA (CRI %) PGE1 [2]
0.07	0.13	0.21	0.29	0.27	0.67	0.82	0.88	–	–	K1B: human anti-PGE2 antibody from PROfusion mRNA display; VH SEQ ID NO 5, VL SEQ ID NO 9 (antibody, V domains shown) VH: EVQLVQSGAEVKRPGASVKVSCKTSGYTFTNYDINWVRLAPGQGLEWMGCMNPTTGKTGYAQKFQGRVTMTRDTTIATAYMELSRLTSEDTAVYYCARGRGYSPGYGVAYADYWGQGTLVTVSS VL: DIQLTQSPSSLPASVGDRVTITCRASQSISTYLNWYQQTPGKAPSLLIYAASSLQSGVPSRFSGSGSGTDFTLTISSLQPEDFATYYCQQSYSPPPTFGGGTKVEIKR	–	–	–
0.04	0.03	0.04	0.06	0.10	0.13	0.29	0.24	–	–	K7H: human anti-PGE2 antibody from PROfusion mRNA display; VH SEQ ID NO 21, VL SEQ ID NO 24 (antibody, V domains shown) VH: EVQLVQSGSELKKPGASVKVSCKASGYSFTEYGISWVRQAPGQGPEWMGCISPYNGKLHYAQKFLGRVTMTTDTSTNTAYMELRSLKSDDTAVYYCARGGFSSYDSSGYYYVTDHWGQGTLVTVSS VL: DIRLTQSPSSLPASVGDRVTITCRASQSISTYLNWYQQTPGKAPSLLIYAASSLQSGVPSRFSGSGSGTDFTLTISSLQPEDFATYYCQQSYSPPPTFGGGTKVEIKR	–	–	–
0.04	0.04	0.04	0.05	0.07	0.07	0.07	0.07	–	–	L11: human anti-PGE2 antibody from PROfusion mRNA display; VH SEQ ID NO 25, VL SEQ ID NO 29 (antibody, V domains shown) VH: EVQLVQSGPELKKPGTSVKVSCKASGYTLTTYAMNWVRQAPGQGLEWMGWIDTSTGNPTYAPGFLGRFVFSLDTSLSTTYLQISSLKPDDTAVYYCARSSHTRPGDFWGQGTLVTVSS VL: QSGLTQPPSVSGTPGQRVTISCSGSESNVGTNSVNWYQQLPGAAPRLLIRGNSDRPSGVPDRFSASKSGTSASLAISRLQSEDEADYFCGACDGRLSGLYVFGTGTKVTVL	–	–	–
0.11	0.22	0.34	0.51	0.61	0.67	0.78	0.58	–	–	K3A: human anti-PGE2 antibody from PROfusion mRNA display; VH SEQ ID NO 13, VL SEQ ID NO 17 (antibody, V domains shown) VH: EVQLVQSGAETKKPGASVEVSCKASGYSFTEYGISWVRQAPGQGPEWMGCISPYNGKLHYAQEFQGRVTMTTGTSTNTAYMELGSLRSDDTAVYYCARGGFSFYDSSGYYYVTDHWGQGTLVTVSS VL: DIRLTQSPSSLSASVGDRVTITCRASQSIGSYLNWYQQKSGKAPKLLIYAASKLQSGVPSRFSGSGFGTDFTLTISSLQPEDSATYYCQQSDTTPFTFGQGTKLEIKR	–	–	–
–	–	–	–	–	–	–	–	2.46 nM	potently bound to PGE2	2B5-7.0: recombinant anti-PGE2 antibody from solved 2B5 sequence; VH SEQ ID NO 40, VL SEQ ID NO 41 (antibody, V domains shown) VH: QVQLQQSGPELVRPGSSVKISCKASGYTFTKYWLGWVKQRPGHGLEWIGDIYPGYDYTHYNEKFKDKATLTVDTSSSTAYMQLSSLTSEDSAVYFCARSDGSSTYWGQGTLVTVSA VL: DVLMTQTPLSLPVSLGDQASISCTSSQNIVHSNGNTYLEWYLQRPGQSPKLLIYKVSNRFSGVPDRFSGSGSGTVFTLKISRVEAEDLGVYYCFQVSHVPYTFGGGTKLEIKR	0.11%	<0.01%	27%
–	–	–	–	–	–	–	–	3.04 nM	potently bound to PGE2	2B5-9.0: recombinant anti-PGE2 antibody from solved 2B5 sequence; VH SEQ ID NO 44, VL SEQ ID NO 45 (antibody, V domains shown) VH: QVQLQQSGPELVRPGSSVKISCKASGYTFTKYWLGWVKQRPGHGLEWIGDIYPYGDYTHYNEKFKDKATLTVDTSSSTAYMQLSSLTSEDSAVYFCARSDGSSTYWGQGTLVTVSA VL: DVLMTQTPLSLPVSLGDQASISCTSSQNIVHSNGNTYLEWYLQRPGQSPKLLIYKVSNRFSGVPDRFSGSGSGTVFTLKISRVEAEDLGVYYCFQVSHVPYTFGGGTKLEIKR	0.24%	<0.01%	23%
0.08	0.10	0.16	0.25	0.32	0.31	0.41	0.46	–	–	L21: human anti-PGE2 antibody from PROfusion mRNA display; VH SEQ ID NO 33, VL SEQ ID NO 36 (antibody, V domains shown) VH: EVQLVQSGSELKKPGTSVKVSCKASGYTLTTYAMNWVRQAPGQGLEWMGWIGTSTGNPTYAQGFTGRFVFSLDTSVNTAHLQIYSLKAEDTALYYCARSSLTRPADYWGQGTLVTVSS VL: QSGLTQPPSVSGAPGQRVTISCFGSSSNIGAGYDVHWYQQLPGAAPKLLIFGNNNRPSGVPDRFSGSKSGTSASLAITGLQAEDEADYYCQSCDSSLSGAVFGTGTKVTVL	–	–	–
